Columns and labels:
[1] = biological target: Glu-plasminogen (Homo sapiens) (UniProt P00747); details: cited from earlier work
[2] = biological target: β2-glycoprotein I (human) (UniProt P02749); experiment: optical biosensor
Sequence of β2-glycoprotein I (human) (P02749 20-345): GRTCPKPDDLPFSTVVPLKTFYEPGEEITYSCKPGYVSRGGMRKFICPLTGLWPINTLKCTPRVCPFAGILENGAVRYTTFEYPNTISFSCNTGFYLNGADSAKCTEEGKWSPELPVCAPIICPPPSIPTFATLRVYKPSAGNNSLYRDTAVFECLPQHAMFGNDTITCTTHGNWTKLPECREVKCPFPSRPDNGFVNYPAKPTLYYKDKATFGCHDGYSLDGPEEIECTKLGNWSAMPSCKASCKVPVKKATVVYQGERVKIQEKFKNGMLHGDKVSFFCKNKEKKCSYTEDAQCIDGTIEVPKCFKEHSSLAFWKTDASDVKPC

Sequence of Glu-plasminogen (Homo sapiens) (P00747 20-810): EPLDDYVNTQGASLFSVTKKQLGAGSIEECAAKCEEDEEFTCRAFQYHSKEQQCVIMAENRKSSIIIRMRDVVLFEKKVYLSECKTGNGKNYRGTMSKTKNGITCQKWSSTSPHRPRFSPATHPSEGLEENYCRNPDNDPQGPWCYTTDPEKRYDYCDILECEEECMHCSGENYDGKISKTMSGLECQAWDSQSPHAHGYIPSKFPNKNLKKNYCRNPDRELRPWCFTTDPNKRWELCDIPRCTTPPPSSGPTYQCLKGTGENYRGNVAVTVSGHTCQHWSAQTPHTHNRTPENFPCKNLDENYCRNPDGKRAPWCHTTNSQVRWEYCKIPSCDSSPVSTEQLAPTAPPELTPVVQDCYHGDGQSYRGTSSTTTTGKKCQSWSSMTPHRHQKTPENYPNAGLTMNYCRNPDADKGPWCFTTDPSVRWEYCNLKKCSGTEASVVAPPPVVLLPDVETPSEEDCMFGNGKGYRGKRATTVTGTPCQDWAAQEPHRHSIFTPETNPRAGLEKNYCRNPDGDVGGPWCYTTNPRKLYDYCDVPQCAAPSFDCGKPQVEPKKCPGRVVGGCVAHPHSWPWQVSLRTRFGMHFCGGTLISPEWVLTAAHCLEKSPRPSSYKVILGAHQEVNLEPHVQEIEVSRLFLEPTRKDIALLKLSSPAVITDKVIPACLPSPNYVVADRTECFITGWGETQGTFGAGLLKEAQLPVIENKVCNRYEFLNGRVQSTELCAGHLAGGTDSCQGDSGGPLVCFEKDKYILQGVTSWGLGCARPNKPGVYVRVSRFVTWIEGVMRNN
Sequence of β2-glycoprotein I (nicked) (P02749 20-345): as the sequence (P02749 20-345) above

koff [2] | kon [2] | Substance | Kd [1]
– | – | β2-glycoprotein I (nicked) (from UniProt P02749) | 370 nM
0.00619 s⁻¹ | 113000 M⁻¹ s⁻¹ | tissue-type plasminogen activator (enzyme) | –
